Patent publication US20250179187A1, “ANTI PD-L2 ANTIBODY” (REJUVERON SENESCENCE THERAPEUTICS AG, priority 2022, published 2025)
pEC50: −log10 of the molar value. Like-named read-outs stand apart in the source and are kept apart here.

Legend:
[1] = molecular target: human PD-L2 on CHO-K1 cells over-expressing hPDL2-GFP (human) (UniProt Q9BQ51); test: flow cytometry blocking assay: antibody titrated against recombinant hPD-1 (constant 15 micrograms/mL) binding to CHO-K1 cells expressing hPD-L2; signal falls with the antibody; column head on the sheet is EC50
Sequence of human PD-L2 on CHO-K1 cells over-expressing hPDL2-GFP (human) (Q9BQ51 20-273): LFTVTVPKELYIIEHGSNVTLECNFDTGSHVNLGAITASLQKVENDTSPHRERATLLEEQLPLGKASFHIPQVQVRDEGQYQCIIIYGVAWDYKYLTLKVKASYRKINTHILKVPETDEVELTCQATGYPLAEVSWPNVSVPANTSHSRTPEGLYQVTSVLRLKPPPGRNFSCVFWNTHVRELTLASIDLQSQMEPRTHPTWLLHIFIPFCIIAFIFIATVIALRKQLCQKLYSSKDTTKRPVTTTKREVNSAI

[2] = molecular target: human PD-L2 on CHO-K1 cells over-expressing hPDL2-GFP (human) (UniProt Q9BQ51); test: flow cytometry on CHO-K1 cells expressing hPD-L2, median fluorescence
[3] = molecular target: human PD-L2 on CHO-K1 cells over-expressing hPDL2-GFP (human) (UniProt Q9BQ51); test: binding to cellular PDL2 (FIG. 1A by the text; flow cytometry on CHO-K1 cells expressing hPD-L2)
[4] = molecular target: human PD-L2 on CHO-K1 cells of the Promega PD-1/PD-L2 blockade bioassay (human) (UniProt Q9BQ51)
Sequence of human PD-L2 on CHO-K1 cells of the Promega PD-1/PD-L2 blockade bioassay (human) (Q9BQ51 20-273): as above

[5] = molecular target: human PD-L2 on CHO-K1 cells of the Promega PD-1/PD-L2 blockade bioassay (human) (UniProt Q9BQ51); remark: listed apart in the source
[6] = molecular target: mouse PD-L2 on CHO-K1 cells over-expressing mPD-L2 GFP (mouse) (UniProt Q9WUL5); test: flow cytometry on CHO-K1 cells overexpressing mPD-L2, mean fluorescence
Sequence of mouse PD-L2 on CHO-K1 cells over-expressing mPD-L2 GFP (mouse) (Q9WUL5 20-247): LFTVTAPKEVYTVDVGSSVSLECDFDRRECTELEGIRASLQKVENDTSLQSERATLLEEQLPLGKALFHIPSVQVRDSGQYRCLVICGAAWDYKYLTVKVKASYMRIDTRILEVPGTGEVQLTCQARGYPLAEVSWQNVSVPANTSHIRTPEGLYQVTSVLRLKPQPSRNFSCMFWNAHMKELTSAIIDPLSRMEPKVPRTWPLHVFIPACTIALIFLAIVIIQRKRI

pEC50 [1] | pEC50 [2] | pEC50 [3] | EC50 (PD-1/PD-L2 blockade reporter assay, luminescence) [4] | EC50 (PD-1/PD-L2 blockade reporter assay, luminescence) [5] | pEC50 [6] | Substance
8.94 | 8.93 | 9.15 | 1.78 nM | – | – | 24F.10C12 (commercially available anti-PD-L2 monoclonal antibody)
8.52 | 8.78 | 9.21 | 1.71 nM | 1.32 nM | – | MIH-18 (commercially available anti-PD-L2 monoclonal antibody)
– | – | – | – | – | 9.19 | TY25 (antibody)
